Data from the nanobody polyreactivity screen of Harvey et al. (2022).

Experiment: yeast display, Sf9 membrane polyspecificity reagent, FACS + sequencing; frameworks hold sequencing errors
Summary of the method: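 A nanobody's polyreactivity label depends on the gate it was sorted from. Yeast display cells were stained with 10% biotinylated, detergent-solubilized Sf9 membrane reagent for 1 hour at 4 °C, enriched on streptavidin microbeads and sorted by FACS. The low and high (top ~1%) gates were set on anti-HA fluorescence for expression and streptavidin fluorescence for reagent binding.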

Row | Sequence | polyreactivity (PSR sort gate)
1 | QVQLVESGGGLVQAGGSLRLSCAASGRTIANNAMGWYRQAPGKERQLVAVITNSGRTYYADSVKGRFTISRDNAKNTVYLQMNSLKPEDTAVYYCAVRYFDRGGSEHPVTFYWGQGTQVTVSS | high polyreactivity
2 | QLQLVESGGGLVQAGGSLSLSCAASGRIFYVYAMGWYRQAPGKEREFVAAITRRSGSTYYADSVKGRFTISRDNAKNTVYFQMNSLKPEDTSVYYCNARLKYAIPQVPPYDYWGQGTQVTVSS | high polyreactivity
3 | QVQLVESGGGLVQAGGSLRLSCAASGSIIHNYDMGWYRPAPGTETEFVAAINWSGGNTHYADSVKGRFTISRDNAKNTFYLQMNSLKPEDTAVYYCAADSGFDTAPYDYWGQGTQVTVSS | low polyreactivity
4 | QVQLVESGGGLVQAGGSLRLSCAASGSNFYIYAMGRYRQAPGKERELVAAISYSGGRTTYADSVKGRFTISRDYAKNTVYLQMNSLKPEDTAVYYCAAGFSYYGLAVAPYRSWGRYYNWGQGTQVTVSS | high polyreactivity
5 | QVQLVESGGGLVQAGGSLRLSCAASGRTFYSNAMGWYRQAPGKERELVAAISSSGTSTRYADSVKGRFTISRDNAKNTVYLQMNSLKPEDTAVYYCAAVGWYHDYYWGQGTQVTVSS | high polyreactivity
6 | QVQLVDSGGGLVQAGGSLRLSCAASGRTFSGNAMGWYRQAPGKERELVAAIRGGGSTYYADSVKGRFTISRDNAKNTVYLQMNSLKPEDTAVYYCAGRSQVYAPAYYRSKYDYWGQGTQVTVSS | high polyreactivity
7 | QVQLVESGGGLVQAGGSLRLSCAASGLIFTYYDIGWYRQEPGKERELVASISWDGGRTYYADSVKGRFTIARDNAKKTVYLQMNSLKPEDTAVYYCAKRLGGSPIQARGDFWGQGTQVTVSS | low polyreactivity
8 | QVQLVESGGGLVQAGGSLRLSCAASGSTFRRYAMGWYRQAPGKERELVATITKRGGSTYYADSVKGRFTISRDNAKNTVYLQMNSLKPEDTAVYYCAADSAYWTYEYWGQGTQVTVSS | high polyreactivity
9 | QVQLVESGGGLVQAGGSLRLSCAASGSTIERYAMGWYRHAPGKERELVAAIRWSGGSTYYADSVKGRFTISRDNAKNTVYLQMNSLKPEDTAVYYCAASRSNADWFDSWGQGTQVTVSS | high polyreactivity
10 | QVQLVESGGGLVQAGGSLRLSCAASGRNFAYYAMGWYRQEPGKERELVAVISKSGGSTNYADSVKGRFTISRDNAKNTVYLQMNSLKPEDTAVYYCAKRAYDPEMYYWGQGTQVTVSS | low polyreactivity
11 | QVQLVESGGGLVQAGGSLRLSCAASGSTFRRNAMGWYRQAPGKERELVAAITSGGSTYYADSVKGRFTISRDNAKNTVYLQMNSLKPEDTAVYYCNRLYRWKKPLDYDYWGQGTQVTVSS | high polyreactivity
12 | QVQLVESGGGLVQAGGSLRLSCAASGSTFGKYAMGWYRQAPGKEREFVAGISWSADSTYYADSVKGRFTISRDNAKNTVYLQMNSLKPEDTAFYYCATDGSSDEFRPEYDYWGQGTQVTVSS | low polyreactivity
13 | QVQLVESGGGLVQAGGSLRLTCAASGNTFTTNVMGWYRQAPGKERELVARISWSGTSTSYADSVKGRFTISRDNAKNTVYLQMNSLKPEDTAVYYCAVGGIVHIRSRAQQEYYYWGHGTQVTVSS | high polyreactivity
14 | QVQLVESGEGLVQAGGSLRLSCAASGRIFAWYAMGWYRQAPGKERELVAAIDRGDNTYYADSVKGRFTISRDNAKNTGYLQMNSLKPEDTAVYYGFYYGAHEPYGYWGQGTQVTVSS | low polyreactivity
15 | QVQLVESGGGLVQAGGSLRLSCAASGGIFIGYAMGWYRQAPGKERELVAAISYSGGSTYYADSVKGRFTISRDNAKNTVYFQMNSLKPEDTALYYCAAQVERKYRWFNSWGQGTQVTVSS | high polyreactivity
16 | QVQLVESGGGLVQAGGSLRFSCSAYGSILPGYAMGWYRQAPGKERELVDAISYRGTSTYYADSVKGRFTISRDNAKNTVYLQMNSLKPEDTAVYYCAAGGSWFSYPPRMDYWGQGTQVTVSS | high polyreactivity

Row | Sequence | polyreactivity (PSR sort gate)
17 | QVQLVESGGGLVQAVGSLRLSCAASGSTLSFNAMGWYRQAPGKERELVAGITYSGGSTYYADSVKGRFTISRDNAKNTVYLQMNSLKPEDTAVYYCNKASGVYYGHLDYWGQGTQVTVSS | low polyreactivity
18 | QVQLVESGGGLVKAGGSLRISCAASGRTFGLYAMGWYRQAPGKERELVAAISWGGGRTYYADSVKGRFTISRDNAKNTVYLQMNSLNPEETAVYYCNAVYSPRYYVGGYDYWGQGTLVTVSS | high polyreactivity
19 | QVQLVESGGGLVQAGGSLRLSCAASGSIFYRNAMGWSRQAPGKEREFVAAITLRGGSTYYADSVKGRFTISRDYAKNTVYLQMNSLKPEDTAVYYCNAGVGLTYVHDGDYWGQGTQVTVSS | low polyreactivity
20 | QVQLQESGGGQVQAGGSLRLSCAASGYMSTHYFMGWYRQSPGKDREFVAGISNGSITNYADSVKGRFTISRDNARNTVYLQMNSLKPEYTAVYYGAAFEWTYVRFGYWGQGTQVTVSG | high polyreactivity
21 | QVQLVDSGGGLVQAGGSLRLSCAASGSIFHFYAMGWYREATGKERELVAAITRGGGSTYYADSVKGRFTISRDNAKNTVYLQMNSLKPEDTAVYYCAAYKYYRYNYWGQGTQVTVSS | high polyreactivity
22 | QVQLVESGGGLVQAGGSLRLSCAASGRTFVGYAMGWYRQAPGKEREFVADITYDSGSTYYADSVKGRFTISRDNAKNTVYLQMNSLKPEETAVYYCAAPDYWAYTRSMDYWGQGTQVTVSS | high polyreactivity
23 | QVQLVESGGGLVQAGGSLRLSCAASGNTFPTYAMGWYRQAPGKERELVAAISRRGGSTYYADSVKGRFTISRDNAKNTVYLQMNSLKPEDTAVYYCARPRRSVNVYKYIYNYWGQGTQVTVSS | high polyreactivity
24 | QVQLVESGGGLVQAGGSLRLSCAASGRILRYNAMGCDRQAPGKERELVASISGNGGSTYYADSVKGRFTISRDNAKNTVYLQMNSLKPEDTAVYYCNKYSYSSRGQKEYDYWGQGTQVTVSS | low polyreactivity
25 | QVQLVESGGGLVQAGGSLRLSCAASGSIFDYNAMGWYRQAPGKEREYVAANTWGSGSTYYADSVKGRFTNSRDNAKNTVYLQMNSLKPEDTAVYYCNADDYGGSTGRKGRYNYWGQGTQVTVSS | low polyreactivity
26 | QDQLVESGGGLVQAGGSLRLSCAASGSTLTRNAMGWYRQAPGKERELVAAITSGGRTKYADSVKGRFTISRDNAKNTVYLQMNSLKPEDTAVYYCAKGGPPGQRGYDYWGQGTQVTVSS | high polyreactivity
27 | QVQLVESGGGLVQAGGSLRLSCAPSGSSKLMLWDGIDRRLGKKGSWLPLFVLVVLRNYADSVKGRFTISRDNANNTVYLQMNSLKPEDTAVYYCAATPIGSGGWGDYWGQGTQVTVSS | low polyreactivity
28 | QVQLVESGVGLVQAGGSLRLSCAASGSTFYQYAIGWYRQAPVKERELVAAISKSGGSTYYADSVKGRFTISRDNAKNTVYLQMNSLKPEDTAVYYCATRWIKGRKMDYWGHGTQVTVSS | high polyreactivity
29 | QVQLVESGGGLVQAGGSLRLSCAASGFTFRKNAKGWYRQAPGKERELVAAISSGSGSTYYADSVKGRFTISRDNAKNTVYLQMNSLKPEDNAVYYCNAEAYYTTGYPTSDVFDRYDYWGQGTQVTVSS | low polyreactivity
30 | QVQLVESGGGLVQAGGSLRLSCAASGLTFRVYAMGWYRQAPGKERELVAAITGGGGSTYADSVKGRFTISRDNAKNTVYLQMNSLKPEDTAVYYCAAASPWDRDDYWGQGTQVTVSS | low polyreactivity
31 | QVQLVESGGGLVQAGGSLRLSCAASGSIFSVYAMGWYRQAPGKEREFVASISGGSGRTYYADSVKGRFTISRDNAKNTVYLQMNSLKPEDTAVYYCDAVLRYTSLSHDYHYKYDYWGQGTQVTVSS | low polyreactivity
